Measurements published in article PMC2290880 (The Journal of Cell Biology, 1993).

Molecular target: T1, Sec63p (Saccharomyces cerevisiae (endogenous in …, UniProt P14906 1-663))
T1 sequence (looked up): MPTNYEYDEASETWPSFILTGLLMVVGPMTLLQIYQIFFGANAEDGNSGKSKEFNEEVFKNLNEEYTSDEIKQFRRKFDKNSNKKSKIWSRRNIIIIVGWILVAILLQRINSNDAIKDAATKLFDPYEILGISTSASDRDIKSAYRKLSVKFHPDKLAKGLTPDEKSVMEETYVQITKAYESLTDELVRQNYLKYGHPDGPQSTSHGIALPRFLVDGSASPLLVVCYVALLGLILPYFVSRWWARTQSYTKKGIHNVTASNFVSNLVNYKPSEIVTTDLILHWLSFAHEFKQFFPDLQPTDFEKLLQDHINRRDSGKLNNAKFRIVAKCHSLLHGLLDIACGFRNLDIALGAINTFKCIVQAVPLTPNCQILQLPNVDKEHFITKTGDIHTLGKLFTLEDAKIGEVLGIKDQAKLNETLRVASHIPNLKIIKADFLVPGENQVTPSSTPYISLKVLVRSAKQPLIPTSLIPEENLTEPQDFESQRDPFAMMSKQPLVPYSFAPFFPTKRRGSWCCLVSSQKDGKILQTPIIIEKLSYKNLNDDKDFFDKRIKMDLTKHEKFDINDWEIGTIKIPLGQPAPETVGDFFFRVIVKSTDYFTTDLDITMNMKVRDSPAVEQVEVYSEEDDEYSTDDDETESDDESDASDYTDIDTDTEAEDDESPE
Test: co-elution on hydroxylapatite chromatography

B1: BiP/Kar2p (natural protein)
chain: not shown
stoichiometry N: 1.4 Sec63p per BiP
